The labels stand for the following.
B1: unnamed (protein)
chain: MNFPRASRLMQAAVLGGLMAVSAAATAQTNPYARGPNPTAASLEASAGPFTVRSFTVSRPSGYGAGTVYYPTNAGGTVGAIAIVPGYTARQSSIKWWGPRLASHGFVVITIDTNSTLDQPESRSSQQMAALRQVASLNGTSSSPIYGKVDTARMGVMGWSMGGGGSLISAANNPSLKAAAAQAPWHSSTNFSSVTVPTLIFACENDSIAPVNSSALPIYDSMSRNAKQFLEINGGSHSCANSGNSNQALIGKKGVAWMKRFMDNDTRYSTFACENPNSTRVSDFRTANCS
B2: unnamed (protein)
chain: MNFPRASRLMQAAVLGGLMAVSAAATAQTNPYARGPNPTAASLEASAGPFTVRSFTVSRPSGYGAGTVYYPTNAGGTVGAIAIVPGYTARQSSIKWWGPRLASHGFVVITIDTNSTLDQPSSRSSQQMAALRQVASLNGTSSSPIYGKVDTARMGVMGWSMGGGGSLISAANNPSLKAAAPQAPWISSTNFSSVTVPTLIFACENDSIAPVNSSALPIYDSMSRNAKQFLEINGGSHSCANSGNSNQALIGKKGVAWMKRFMDNDTRYSTFACENPNSTRVSDFRTANCS
B3: unnamed (protein)
chain: MNFPRASRLMQAAVLGGLMAVSAAATAQTNPYARGPNPTAASLEASAGPFTVRSFTVSRPSGYGAGTVYYPTNAGGTVGAIAIVPGYTARQSSIKWWGPRLASHGFVVITIDTNSTLDQPSSRSSQQMAALRQVASLNGTSSSPIYGKVDTARMGVMGWSMGGGGSLISAANNPSLKAAAPQAPWHSSTNFSSVTVPTLIFACENDSIAPVNSSALPIYDSMSRNAKQFLEINGGSHSCANSGNSNQALIGKKGVAWMKRFMDNDTRYSTFACENPNSTRVSDFRTANCS
B4: unnamed (protein)
chain: MNFPRASRLMQAAVLGGLMAVSAAATAQTNPYARGPNPTAASLEASAGPFTVRSFTVSRPSGYGAGTVYYPTNAGGTVGAIAIVPGYTARQSSIKWWGPRLASHGFVVITIDTNSTLDQPDSRSSQQMAALRQVASLNGTSSSPIYGKVDTARMGVMGWSMGGGGSLISAANNPSLKAAAPQAPWHSSTNFSSVTVPTLIFACENDSIAPVNSSALPIYDSMSRNAKQFLEINGGSHSCANSGNSNQALIGKKGVAWMKRFMDNDTRYSTFACENPNSTAVSDFRTANCS
B5: unnamed (protein)
chain: MNFPRASRLMQAAVLGGLMAVSAAATAQTNPYARGPNPTAASLEASAGPFTVRSFTVSRPSGYGAGTVYYPTNAGGTVGAIAIVPGYTARQSSIKWWGPRLASHGFVVITIDTNSTLDQPESRSSQQMAALRQVASLNGTSSSPIYGKVDTARMGVMGWSMGGGGSLISAANNPSLKAAAPQAPWHSSTNFSSVTVPTLIFACENDSIAPVNSSALPIYDSMSRNAKQFLEINGGSHSCANSGNSNQALIGKKGVAWMKRFMDNDTRYSTFACENPNSTRVSDFRTANCS
B6: unnamed (protein)
chain: MNFPRASRLMQAAVLGGLMAVSAAATAQTNPYARGPNPTAASLEASAGPFTVRSFTVSRPSGYGAGTVYYPTNAGGTVGAIAIVPGYTARQSSIKWWGPRLASHGFVVITIDTNSTLDQPDSRSSQQMAALRQVASLNGTSSSPIYGKVDTARMGVMGWSMGGGGSLISAANNPSLKAAAAQAPWHSSTNFSSVTVPTLIFACENDSIAPVNSSALPIYDSMSRNAKQFLEINGGSHSCANSGNSNQALIGKKGVAWMKRFMDNDTRYSTFACENPNSTRVSDFRTANCS

Substrate in the first data set: PET
The data set can be described thus: Proxy for plastic degradation [HPLC-UV]. The settings on record: pH 9; 30 °C; 24 h.
On to B1, for which the “Proxy for plastic degradation” value is 10.6 µM.
For B2, the “Proxy for plastic degradation” value was found to be 1.3 µM.
On to B3, for which the “Proxy for plastic degradation” value came out at 10.4 µM.
The same measure, in the same setting: as for B4, the figure is 22.2 µM.
Turning to B5, the “Proxy for plastic degradation” value was 18.8 µM.
The same measure, in the same setting: as for B6, the figure is 13.4 µM.

The data set is the same for the next values; noted with them: pH 9; 30 °C; 72 h.
On to B1, for which the “Proxy for plastic degradation” value was 13.7 µM.
Regarding B2, the “Proxy for plastic degradation” value was found to be 2.4 µM.
For the protein B3, the “Proxy for plastic degradation” value was 12.8 µM.
B4: the “Proxy for plastic degradation” value was 57.2 µM.
As for B5, the “Proxy for plastic degradation” value worked out at 30.5 µM.
For the protein B6, the “Proxy for plastic degradation” value was determined as 18.9 µM.

The same data set, now with this note: pH 9; 40 °C; 24 h.
As for B1, the “Proxy for plastic degradation” value was determined as 13.9 µM.
Consider B2, for which the “Proxy for plastic degradation” value amounted to 1.2 µM.
On to B3, for which the “Proxy for plastic degradation” value stood at 8.7 µM.
B4: the “Proxy for plastic degradation” value came out at 69.8 µM.
With B5, the “Proxy for plastic degradation” value came to 38.7 µM.
On the same count and under the same terms, as for B6, the figure is 18 µM.

The data set is the same for the next values; noted with them: pH 9; 40 °C; 72 h.
On to B1, for which the “Proxy for plastic degradation” value was determined as 19.8 µM.
With B2, the “Proxy for plastic degradation” value was 6.9 µM.
Still for that read-out and setting: the same measure for B3: 19.7 µM; for B4: 93.6 µM.
B5: the “Proxy for plastic degradation” value was 52.2 µM.
Consider B6, for which the “Proxy for plastic degradation” value was 25.3 µM.
